{"source": "patent US7556938B1", "about": "“Nucleic acids encoding potassium channel interactors” (Millennium Pharmaceuticals, Inc., priority 1998, dated 2009)", "molecules": {"B1": {"name": "KChIP1: Potassium channel interacting protein 1v, a Ca2+-binding protein that binds and modulates Kv4 channels (protein)", "chain": "MPARVLLAYPGTEMLTQGESEGLQTLGIVVVLCSSLKLLHYLGLIDLSDDKIEDDLEMTMVCHRPEGLEQLEAQTNFTKRELQVLYRGFKNECPSGVVNEETFKQIYAQFFPHGDASTYAHYLFNAFDTTQTGSVKFEDFVTALSILLRGTVHEKLRWTFNLYDINKDGYINKEEMMDIVKAIYDMMGKYTYPVLKEDTPRQHVDVFFQKMDKNKDGIVTLDEFLESCQEDDNIMRSLQLFQNVM"}}, "key": {"HKv2.1": {"target": "T1, HKv2.1 (Homo sapiens, UniProt Q14721)", "T1 sequence (Q14721 1-858)": "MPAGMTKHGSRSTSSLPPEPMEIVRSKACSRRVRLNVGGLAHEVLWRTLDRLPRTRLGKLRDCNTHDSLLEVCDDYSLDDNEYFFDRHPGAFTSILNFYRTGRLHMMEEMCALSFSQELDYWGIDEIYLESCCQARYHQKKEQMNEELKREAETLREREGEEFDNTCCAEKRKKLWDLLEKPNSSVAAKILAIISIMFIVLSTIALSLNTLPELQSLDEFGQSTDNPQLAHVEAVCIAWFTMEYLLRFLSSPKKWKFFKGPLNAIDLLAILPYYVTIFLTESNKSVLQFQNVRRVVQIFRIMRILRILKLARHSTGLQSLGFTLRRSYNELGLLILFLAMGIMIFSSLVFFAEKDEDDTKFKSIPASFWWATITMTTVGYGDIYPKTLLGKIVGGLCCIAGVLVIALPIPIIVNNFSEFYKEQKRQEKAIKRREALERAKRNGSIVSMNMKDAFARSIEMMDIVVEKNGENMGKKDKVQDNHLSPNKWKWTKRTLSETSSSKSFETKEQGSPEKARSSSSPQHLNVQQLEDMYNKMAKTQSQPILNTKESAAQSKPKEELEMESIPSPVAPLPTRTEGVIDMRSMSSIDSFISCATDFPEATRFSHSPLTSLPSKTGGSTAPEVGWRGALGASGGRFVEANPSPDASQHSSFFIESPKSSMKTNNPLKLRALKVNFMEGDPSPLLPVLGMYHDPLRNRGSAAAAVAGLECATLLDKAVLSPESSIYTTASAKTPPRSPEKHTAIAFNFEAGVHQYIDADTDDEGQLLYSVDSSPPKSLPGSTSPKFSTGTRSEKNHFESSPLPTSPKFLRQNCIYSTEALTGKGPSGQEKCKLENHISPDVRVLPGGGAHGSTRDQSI", "assay": "Two-electrode voltage clamp of Kv2.1 currents in Xenopus oocytes coexpressing 1v", "assay_type": "cell-based", "protocol": "Frogs underwent no more than two surgeries and surgeries were performed by well established techniques. Frogs were anesthetized with ice. Total cRNA (1-10 ng) was injected into stage IV Xenopus oocytes that were harvested the previous day. The Xenopus oocytes were incubated in ND96 containing (in mM) 96 NaCl, 2 KCl, 1.8 CaCl2, 1 MgCl2, 5 HEPES, pH 7.6, plus (Gentamycin 50 μg/ml) at 18° C. Xenopus oocytes were studied 3-7 days after injection. The two-electrode voltage-clamp recordings were performed in ND96 solution using a TURBO TEC 03 Clamp Amplifier (ALA Scientific Instruments, Westbury, N.Y.). Both electrodes were filled with 3 M KCl and had electrode resistances ranging from 0.2-1 MOhm. The current signals were filtered at 1000 Hz before transferred on a PC (Gateway, Calif.) using the PULSE software (HEKA, Germany).\nTo investigate whether the modulatory effects of these KChIPs are specific for Kv4 channels, KChIP1 was coexpressed with Kv1.4 and Kv2.1 in Xenopus oocytes. Xenopus oocytes were injected with 1-3 ng/oocyte of cRNA which was prepared using standard in vitro transcription techniques (Sambrook et al. 1989. Molecular Cloning: a laboratory manual, Cold Spring Harbor Press). Currents in Xenopus oocytes were measured with a two-electrode voltage clamp. […] As a final control for the KChIP effects and to verify that the KChIPs' effects on Kv4 currents are independent of expression system, the above kinetic analyses were repeated after expressing Kv4.3 and KChIP mRNAs in Xenopus oocytes. The effects KChIP1 on for Kv4.3 in the Xenopus oocyte system were strikingly similar to those on Kv4.2 in CHO cells (Table 1)."}, "rKv4.3N": {"target": "T2, rKv4.3N (Rattus norvegicus, UniProt Q62897)", "T2 construct": "expressed in transfected cells; host or cells: yeast HF7c (bait), mated with Y187 (fish)", "T2 sequence (Q62897 1-180)": "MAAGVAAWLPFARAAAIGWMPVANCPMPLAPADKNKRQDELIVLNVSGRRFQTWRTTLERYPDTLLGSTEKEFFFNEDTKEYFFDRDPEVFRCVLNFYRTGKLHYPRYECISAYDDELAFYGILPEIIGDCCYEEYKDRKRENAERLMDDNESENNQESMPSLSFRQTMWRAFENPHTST", "assay": "Yeast two-hybrid binding and specificity test, Kv4.3 N-terminal bait", "protocol": "The first 180 amino acids of rKv4.3 (described in Serdio P. et al. (1996) J. Neurophys 75:2174-2179) were amplified by PCR and cloned in frame into pGBT9 resulting in plasmid pFWA2, (hereinafter “bait”). This bait was transformed into the two-hybrid screening strain HF7c and tested for expression and self-activation. The bait was validated for expression by Western blotting.\nTwo-hybrid screens were carried out essentially as described in Bartel, P. et al. (1993) “Using the Two-Hybrid System to Detect Polypeptide-Polypeptide Interactions” in Cellular Interactions in Development: A Practical Approach, Hartley, D. A. ed. Oxford University Press, Oxford, pp. 153-179, with a bait-library pair of rkv4.3 bait-rat mid brain library. A filter disk beta-galactosidase (beta-gal) assay was performed essentially as previously described (Brill et al. (1994) Mol. Biol. Cell. 5:297-312). Clones that were positive for both reporter gene activity (His and beta-galactosidase) were scored and fish, plasmids were isolated from yeast, transformed into E. coli strain KC8, DNA plasmids were purified and the resulting plasmids were sequenced by conventional methods (Sanger F. et al. (1977) PNAS, 74: 5463-67).\nPositive interactor clones were subjected to a binding specificity test where they were exposed to a panel of related and unrelated baits by a mating scheme previously described (Finley R. L. Jr. et al. (1994) PNAS, 91(26):12980-12984). Briefly, positive fish plasmids were transformed into Y187 and the panel of baits were transformed into HF7c. Transformed fish and bait cells were streaked out as stripes on selective medium plates, mated on YPAD plates, and tested for reporter gene activity."}}}
{"molecule": "B1", "values": [{"measurement": "effect on Kv2.1 currents", "setting": "HKv2.1", "value": "did not appear to have any effect"}, {"measurement": "Activation V1/2 (mV)", "setting": "HKv2.1; HKv2.1 + 1v", "value": 12.4, "unit": "mV"}, {"measurement": "Steady-state Inactivation V1/2 (mV)", "setting": "HKv2.1; HKv2.1 + 1v", "value": "−23.9", "unit": "mV"}, {"measurement": "Peak Current (μA/cell at 50 MV)", "setting": "HKv2.1; HKv2.1 + 1v, at 50 mV", "value": "2.9 ± 0.37", "unit": "μA/cell"}, {"measurement": "Inactivation time constant (at 50 mV)", "setting": "HKv2.1; HKv2.1 + 1v, at 50 mV, listed as head says ms, cell prints s", "value": 1.7, "unit": "s 0.078"}, {"measurement": "binding to rKv4.3N in yeast two-hybrid assay", "setting": "rKv4.3N", "value": "able to bind to the Kv4.3 polypeptide"}]}
